The labels stand for the following.
T1: recombinant mouse IL1RAP protein (Sino Biological, Cat #52657-M08H) (mouse, UniProt Q61730 21-359)
T1 construct: Bought protein
T1 sequence (looked up): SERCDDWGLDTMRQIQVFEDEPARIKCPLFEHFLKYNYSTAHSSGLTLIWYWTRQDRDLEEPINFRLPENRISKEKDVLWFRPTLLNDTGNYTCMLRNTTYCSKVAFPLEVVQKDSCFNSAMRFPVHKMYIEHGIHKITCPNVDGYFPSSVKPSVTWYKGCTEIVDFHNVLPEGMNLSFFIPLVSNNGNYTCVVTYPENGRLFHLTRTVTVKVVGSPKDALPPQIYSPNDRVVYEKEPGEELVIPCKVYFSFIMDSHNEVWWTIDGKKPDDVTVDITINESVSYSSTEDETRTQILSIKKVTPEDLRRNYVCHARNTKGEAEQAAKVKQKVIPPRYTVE

T2: IL1RAP on HEK-Blue IL1β / HEK-Blue IL33 reporter cells (UniProt Q9NPH3 21-570, limits assumed)
T2 sequence (looked up): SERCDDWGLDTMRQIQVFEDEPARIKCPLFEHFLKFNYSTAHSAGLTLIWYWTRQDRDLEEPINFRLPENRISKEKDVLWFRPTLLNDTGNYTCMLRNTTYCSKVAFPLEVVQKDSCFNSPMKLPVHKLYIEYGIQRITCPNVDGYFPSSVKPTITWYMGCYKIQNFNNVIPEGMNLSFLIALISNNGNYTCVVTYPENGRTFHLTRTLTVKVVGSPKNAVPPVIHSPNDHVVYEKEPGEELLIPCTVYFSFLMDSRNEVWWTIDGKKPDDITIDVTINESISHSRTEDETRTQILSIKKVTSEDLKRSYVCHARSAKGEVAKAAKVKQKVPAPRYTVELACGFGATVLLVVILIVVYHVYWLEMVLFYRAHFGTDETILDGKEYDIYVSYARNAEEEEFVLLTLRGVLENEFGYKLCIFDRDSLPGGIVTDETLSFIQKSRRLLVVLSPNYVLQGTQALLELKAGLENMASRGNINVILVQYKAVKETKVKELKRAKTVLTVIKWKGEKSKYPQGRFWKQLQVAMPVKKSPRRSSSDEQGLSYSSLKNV

T3: cyIL1RAP-His (Lake Pharma) (cynomolgus monkey, UniProt A0A2K5X5J5 21-367)
T3 construct: Bought protein (Lake Pharma, lot 16205819371); also called cynomolgus IL1RAP; monkey IL1RAP; not shown: His tag
T3 sequence: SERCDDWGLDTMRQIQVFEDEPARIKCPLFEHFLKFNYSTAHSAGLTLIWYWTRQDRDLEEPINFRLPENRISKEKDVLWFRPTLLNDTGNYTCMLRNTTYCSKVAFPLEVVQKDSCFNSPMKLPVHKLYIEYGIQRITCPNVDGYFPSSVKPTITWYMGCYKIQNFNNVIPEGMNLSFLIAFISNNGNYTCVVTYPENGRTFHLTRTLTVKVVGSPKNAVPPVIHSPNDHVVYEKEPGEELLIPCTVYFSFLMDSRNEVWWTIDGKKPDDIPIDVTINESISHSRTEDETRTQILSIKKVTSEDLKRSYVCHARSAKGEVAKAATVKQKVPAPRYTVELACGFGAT

T4: recombinant human IL1RAP protein, extracellular domain His-tagged (Sino Biological, Cat #10121-H08H) (human, UniProt Q9NPH3 21-367)
T4 construct: extracellular domain; Bought protein; The Octet analyte is printed as huIL1RAP-His (Sino Biological, lot MB08MA1301) without a catalogue number; also called huIL1RAP-His; hIL1RAP; not shown: His tag
T4 sequence (looked up): T3 sequence with F183L, P273T, T326K

B1: STLX2021 (antibody, V domains shown)
VH: EVQVVESGGGLVKPGGSLRLSCAASGFIFSKAWMSWVRQAPGKGLEWVGRIKSKTDGGTTDYAAPVKGRFTISRDDSKNTLYLQMNSLKTEDTAVYYCTTGGYVFDYWGQGALVTVSS
VL: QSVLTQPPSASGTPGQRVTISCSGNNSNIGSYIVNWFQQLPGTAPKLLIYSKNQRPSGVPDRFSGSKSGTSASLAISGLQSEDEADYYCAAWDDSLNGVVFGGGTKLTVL
notes: Purified from hybridoma of immunized Alivamab mice; intact IgG; captured on anti-mouse IgG Fc sensors in Octet; lambda light chain; also called 74804_21D11A
B2: STLX2016 (antibody, V domains shown)
VH: QVQLQESGPGLVKPSETLSLTCTVSGGSISSYFWNWIRQPPGKGLEWIGYGHYSGNSNHNPSLKSRVTISVDMSKNQFSLKMSSVTAADTAMYYCAREGLHDAFDIWGQGTMVTVSS
VL: not shown
notes: Purified from hybridoma of immunized Alivamab mice; intact IgG; captured on anti-mouse IgG Fc sensors in Octet; lambda light chain; also called 74804_16M09A
B3: STLX2005 (antibody, V domains shown)
VH: EVQLVDSGGGLVKPGGSLRLSCAATGFTFSNVWMSWVRQGSGKGLEWVGRIKSKTDGGTIDYAAPVKGRFTISRDDPKNTLYLQMNSLKTEDTAVYYCTTGELLGFDYWGQGTLVTVSS
VL: DIVMTQSPLSLPVTPGEPASISCRSGQSLLHNNGFNCLAWYLQKPGQSPQLLIYLGSNRASGVPDRFSGSGSGTDFTLKISRVEAEDVGVFYCMQTLQTPITFGQGTRLEIK
notes: Purified from hybridoma of immunized Alivamab mice; intact IgG; captured on anti-mouse IgG Fc sensors in Octet; kappa light chain; also called 74804_05B24A
B4: STLX2045 (antibody, V domains shown)
VH: B3 VH with D6E, S21A, T55A, P77S, V95M
VL: B3 VL with N32S, F91Y
notes: Purified from hybridoma of immunized Alivamab mice; intact IgG; captured on anti-mouse IgG Fc sensors in Octet; kappa light chain; also called 74804_45C18A
B5: STLX2027 (antibody, V domains shown)
VH: EVQLVESGGGLVKPGGSLRLSCAASGFTFITYSMNWVRQAPGKGLEWVSSISSISSYIYYADSVKGRFTISRDNAKNSLYLQMDSLRAEDSAVYYCAREGIVGPTGYFDSWGQGTLVTVSS
VL: QSVLTQPPSVSAAPGQKVTISCSGSSSNIGNHYVSWYQQLPGTAPKLLIYDNNKRPSGIPDRFSGSKSGTSATLGITGLQTGDEADYYCGTWDSRLSAYWVFGGGTKLTVL
notes: Purified from hybridoma of immunized Alivamab mice; intact IgG; captured on anti-mouse IgG Fc sensors in Octet; lambda light chain; also called 74804_27I24A

Positions count from the first letter of the chain named.

The first experiment concerns the target T1, recombinant mouse IL1RAP protein (Sino …). Nature of the experiment: cell-free ELISA, mouse IL1RAP coated; data not shown. The method, then: Recombinant human or mouse IL1RAP proteins (Sino Biological, Beijing, China; Cat #10121-H08H and Sino Biological, Cat #52657-M08H respectively) were diluted in PBS, pH 7.4 at concentration of 1 μg/ml, coated on high-binding 384-well clear plates and incubated overnight at 4° C. Following, plates were washed 3× with 0.05% Tween-20 in PBS, pH 7.5 and then blocked with 1% BSA in PBS for 1 hour at room temperature. After 3× washes, wells were incubated with each antibody at the highest concentration of 100 nM followed by seven serial half log dilutions (in 1% BSA and 0.05% Tween-20 in PBS) for 1 hour at room temperature. Plates were then washed 3× and incubated with […] detection antibody (Medna, TX, USA; Cat #D8212, 0.5 μg/ml diluted in 0.02% Tween-20 in PBS). After 5× washes, Supersignal ELISA Pico substrate (Thermofisher, MA, USA; Cat #37069) was applied to wells and chemiluminescent signal was read on Sprectramax L for 200 ms/well. Similarly, detection with specific κ and λ antibodies was conducted to define light chain isotyping.
On the technique in general: ELISA stands for enzyme-linked immunosorbent assay.
As to B1, the binding result was “no binding (tested: 100 nM)”.
Same read-out and setting: under B2 stands “no binding (tested: 100 nM)”; under B3, “no binding (tested: 100 nM)”; under B4, “no binding (tested: 100 nM)”.
The same measure, in the same setting: under B5 stands “no binding (tested: 100 nM)”.

Another experiment addresses T2, IL1RAP on HEK-Blue IL1β / HEK-Blue IL33 …. Description: cell-based or functional assay.
Turning to B1, the “IC50, HEK-BlueIL1β NFκB Reporter Assay” value was 5.32e-10 M (implied; unit not printed) and the “Max % Inhibition at 200 nM, HEK-BlueIL1β NFκB Reporter Assay” value came out at 101%.
The like results for B2 were, in that order, 8.05e-10 M (implied; unit not printed) and 100%.
The like results for B3 were, in that order, 4.46e-10 M (implied; unit not printed) and 99%.
In the same order, the values of B4 are 1.93e-10 M (implied; unit not printed) and 100%.
With B5, the “IC50, HEK-BlueIL1β NFκB Reporter Assay” value is 1.96e-09 M (implied; unit not printed) and the “Max % Inhibition at 200 nM, HEK-BlueIL1β NFκB Reporter Assay” value is 100%.

Another experiment concerns the target T3, cyIL1RAP-His (Lake Pharma). Nature of the experiment: Octet BLI; mAb captured on anti-mouse IgG Fc sensor; cyIL1RAP-His analyte. The method, then:
(§1) Antibodies were diluted in kinetics buffer (0.1% BSA, 0.02% Tween-20 and 0.05% NaN₃ in PBS) and loaded onto 16 channel anti-mouse IgG Fc capture sensors (AMC, Cat #2001073; Sartorius, Göttingen, Germany). Human, huIL1RAP-His (Sino Biological, lot: MB08MA1301), and monkey, cyIL1RAP-His (Lake Pharma, NY, USA; lot:16205819371) proteins were titrated starting from the highest concentration of 100 nM and followed by 50 nM and 25 nM. Purified antibodies were loaded at 5 μg/ml in kinetics buffer. The experimental parameters selected to determine the kinetic constants were Baseline for 60 s, Loading of antibody to sensor for 180 s, Association of analyte to antibody for 120 s, Dissociation for 1200 s and Regeneration in 10 mM Glycine pH 1.7 for 4×30 s.
(§2) Regeneration cycle tracking was selected for 12 cycles. Binding to human and cynomolgus IL1RAP was measured and KD (M) kinetics were calculated. Also, the disassociation rate (Kdis) (1/s) and association rate (Kon) (1/Ms) kinetics were calculated (data not shown).
As a reminder, the Kd is the free concentration of one partner at which half of the binding sites on the other are occupied at equilibrium, for simple one-to-one binding. Usually koff stands for the first-order rate constant of dissociation. By kon is commonly meant the second-order rate constant of association. The molecule B1 gave an equilibrium dissociation constant (Kd) of 10.2 nM, a Response of 0.232, an off-rate (koff) of 0.00259 s⁻¹ and a kon of 254000 M⁻¹ s⁻¹.
In the same order, the values of B2 are 3.94 nM, 0.199, 0.004 s⁻¹ and 1.01e+06 M⁻¹ s⁻¹.
The like results for B3 were, in that order, 2.1 nM, 0.3, 0.000563 s⁻¹ and 268000 M⁻¹ s⁻¹.
In the same order, the values of B4 are 0.863 nM, 0.277, 0.000291 s⁻¹ and 338000 M⁻¹ s⁻¹.
With B5, the Kd stood at 2.82 nM, the Response is 0.242, the koff came to 0.00107 s⁻¹ and the on-rate (kon) is 380000 M⁻¹ s⁻¹.

The next experiment addresses T4, recombinant human IL1RAP protein, …. Nature of the experiment: Octet BLI; mAb captured on anti-mouse IgG Fc sensor; huIL1RAP-His analyte. The method, then:
as §1, §2
In the case of B1, the Kd came out at 2.19 nM, the Response amounted to 0.249, the koff amounted to 0.000478 s⁻¹ and the on-rate constant (kon) was 218000 M⁻¹ s⁻¹.
In the same order, the values of B2 are 0.834 nM, 0.257, 0.000411 s⁻¹ and 493000 M⁻¹ s⁻¹.
The like results for B3 were, in that order, 1.67 nM, 0.268, 0.000491 s⁻¹ and 294000 M⁻¹ s⁻¹.
Turning to B4, the Kd is 0.648 nM, the Response was 0.261, the koff came to 0.000273 s⁻¹ and the kon was 422000 M⁻¹ s⁻¹.
The like results for B5 were, in that order, 2.13 nM, 0.229, 0.000747 s⁻¹ and 350000 M⁻¹ s⁻¹.

The next experiment addresses T2, IL1RAP on HEK-Blue IL1β / HEK-Blue IL33 …. Description: cell-based or functional assay. The source holds these as a separate data set.
For B1, the “IC50, HEK-BlueIL33 NFκB Reporter Assay” value is 3.54e-09 M (implied; unit not printed) and the “Max % Inhibition at 200 nM, HEK-BlueIL33 NFκB Reporter Assay” value stood at 85%.
The like results for B2 were, in that order, 7.66e-09 M (implied; unit not printed) and 76%.
In the same order, the values of B3 are 2.72e-09 M (implied; unit not printed) and 85%.
In the same order, the values of B4 are 1.37e-09 M (implied; unit not printed) and 98%.
Consider B5, for which the “IC50, HEK-BlueIL33 NFκB Reporter Assay” value is 8.31e-09 M (implied; unit not printed) and the “Max % Inhibition at 200 nM, HEK-BlueIL33 NFκB Reporter Assay” value came to 86%.
